Tested on: MS2 coat protein
Assay: apparent KD of MS2 coat protein; designed switch direction (-1 OFF switch, 1 ON switch): -1; higher = weaker reporter binding
Procedure, shortened: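 RNA switches sharing common flanks were transcribed by stalled E. coli RNA polymerase on Illumina chips. A doubling series of SNAP-549-labelled MS2 coat protein, from 0.7 or 1.5 nM to 3 µM, was applied in Tris-HCl pH 7.5 buffer with KCl, MgCl2, BSA, DTT, tRNA and Tween-20. Each step lasted 0.8–1.5 h at the bottom of the series and 10–20 min at the top. Normalised cluster fluorescence was curve-fitted, giving apparent KD as the per-design median over clusters.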

[1] = input ligand: microRNA oligo, concentration not stated
[2] = Eterna round: R95, input ligand: microRNA oligo, concentration not stated
[3] = Eterna round: R95, input ligand: FMN 200 uM
[4] = Eterna round: R95, input ligand: none

| Sequence | apparent KD of MS2 coat protein (input ligand: FMN 200 uM) [nM] | apparent KD of MS2 coat protein [1] [nM] | apparent KD of MS2 coat protein (input ligand: none) [nM] | apparent KD of MS2 coat protein [2] [nM] | apparent KD of MS2 coat protein [3] [nM] | apparent KD of MS2 coat protein [4] [nM] |
| --- | --- | --- | --- | --- | --- | --- |
| UUAAUUCGGAUUCUUGAAAUACAUGAGGAUCACCCAUGUUCACAGGAUAUUGAUUAUGUUAGUAACAAGAAGGGUGUAACAUAU [JR_ExcNG3_Sub036] (Eterna round: R96, puzzle: Exclusion NG 3) | 87.1 | 31 | 28.7 |  |  |  |
| ACAUGUAAUGUAGGAUAUUUUACACAUGAGGAUCACCCAUGUGACCAGAGGCAUUGCUAUGAGUAAAAGAAGGGUAUGUACAUG [Ex NG2 #58] (Eterna round: R96, puzzle: Exclusion NG 2) | 47 | 27.8 | 42.3 |  |  |  |
| UUAUACGUUGAGGAUAUGCGACUGUUUUAAGUUGUAGAAGGCGAUACAUGAGGAUCACCCAUGUUUAUGGGCAU [LRO-Ex6-12] (puzzle: Exclusion 6) |  |  |  | 169 |  |  |
| AUAUUGCGAGGAUAUACAUGAGGAUCACCCAUGUGGUAGUAGAUACGGUAGGGCUAGUGUAGAAGGUGUUAUGA [EX3 #14] (Eterna round: R97, puzzle: Exclusion 3) | 80.2 |  | 172 |  |  |  |
| GAGCUGUGAGGAUAUACAUGAGGAUCACCCAUGUUAAGGAAGUGGUGUAUAUUGUAGUGUAGAAGGCACUUGUG [JR_Ex3_Sub025] (Eterna round: R97, puzzle: Exclusion 3) | 600 |  | 306 |  |  |  |
| CAUGAUUGGGAAGGAUAUUGACCUAGUUAGCGCCGAGAAGGUCCCUGUCACAUGAGGAUCACCCAUGUGAAUCUGGUGUUCGAG [Ex NG1 #94] (Eterna round: R96, puzzle: Exclusion NG 1) | 36.7 | 17.9 | 19.7 |  |  |  |
| AUUUUAUAUGAAGGAUAUACUUAACAUGAGGAUCACCCAUGUGGUGUUGUGAGUGAGUGAGUUUAGUAGAAGGUCAAUUAUUUU [JMF's solution 32] (Eterna round: R96, puzzle: Exclusion NG 2) | 781 | 167 | 257 |  |  |  |
| GGAUCGAAUGUGAGGAUAUGCUGGUCCUUGGAUCAGCAGAAGGCACAUGAGGAUCACCCAUGUGACCAAGAUCC [Eli bmx4 4.73] (Eterna round: R97, puzzle: Brourd's mod of Exclusion 4) | 450 |  | 44.1 |  |  |  |
| UGACGAGUAGGAUAUUGGACUUGCGACAUGAGGAUCACCCAUGUGACGUCAACGUGGCACCAAGAAGGGCUACGUC [Gelareusdi] (Eterna round: R96, puzzle: Exclusion 5) | 53.4 | 49.3 | 63.3 |  |  |  |
| CUUAAGUUAGGAUAUGCGCUACGGAAUCGUGGUUAUAGACAGCAGAAGGAACUUGAGGAUCACCCAAGUAAAUA [Inatsoce] (Eterna round: R97, puzzle: Exclusion 4) | 89.2 |  | 108 |  |  |  |
| GAGGAGCAAGGAUAUACGAGGAUAUGGAAGGUUGGAGAGUGACAUGAGGAUCACCCAUGUAGAAGGUGCGAGGG [JR_Exclu2_Sub097] (puzzle: Exclusion 2) |  |  |  | 43.4 |  |  |
| AAUCCACAUGAGGAUCACCCAUGUGAGGAUAUGAUACUAUGUACUUCGGUACAUAGUAUCAGAAGGCACAGGUC [Ex1-3: 58] (puzzle: Exclusion 1) |  |  |  | 25 |  |  |
| AGUUAGAUAGGAUAUGCCCGAGAUAACAUGAGGAUCACCCAUGUGACCGAAUCUAUUCUAGCAGAAGGGUUUAGGA [Mod of ViennaUCT 18 - Jieux - Exclusion 5] (Eterna round: R97, puzzle: Exclusion 5) | 23.6 |  | 31.3 |  |  |  |
| GCCGAUUAAGUCAGGAUAUACCUAUGGAUACAUAGGUAGAAGGGACAUGAGGAUCACCCAUGUUCCUCACCGGC [Fiskers BMX 4 - 15] (puzzle: Brourd's mod of Exclusion 4) |  |  |  | 12 |  |  |
| AAGAAACAUGAGGAUCACCCAUGUGAGGAUAUGGCCCGCCCGGCGUGAGCUAAAUAAAUCAGAAGGCACAAAGG [salish99_ex1_r4_010] (Eterna round: R97, puzzle: Exclusion 1) | 24.6 |  | 42.2 |  |  |  |
| AAAGUCGGAGGAUAUACAAUAGAUGACAAUAAAGUUGGAGUACAUGAGGAUCACCCAUGUAGAAGGCCGAGAAA [Swimmer becomes a laser gun] (puzzle: Exclusion 2) |  |  |  | 17.3 | 28.2 | 20.6 |
| GAUCCACAUGAGGAUCACCCAUGUGAGGAUAUGAUACUAUGUACUUCGGUACAUAGUAUCAGAAGGCACAGGUC [Ex1-3: 56] (Eterna round: R96, puzzle: Exclusion 1) | 333 | 50.7 | 52.9 |  |  |  |

| Sequence | apparent KD of MS2 coat protein (input ligand: FMN 200 uM) [nM] | apparent KD of MS2 coat protein [1] [nM] | apparent KD of MS2 coat protein (input ligand: none) [nM] | apparent KD of MS2 coat protein [2] [nM] | apparent KD of MS2 coat protein [3] [nM] | apparent KD of MS2 coat protein [4] [nM] |
| --- | --- | --- | --- | --- | --- | --- |
| GCGCCAUCGUGAGAUGGCGUAUAUACAUGAGGAUCACCCAUGUAGGAUAUCGAUUGCUUUGCAGUCGAGAAGGGCGUGUAAUUU [JL ENG3 3.92] (Eterna round: R96, puzzle: Exclusion NG 3) | 45.7 | 22.5 | 34.8 |  |  |  |
| AGGUGACAUGAGGAUCACCCAUGUGAGGAUAUCUGGAUACUCUUUAUUUUAGAUAUCCAGAGAAGGCACACCCU [Ex1-3: 8Z] (puzzle: Exclusion 1) |  |  |  | 235 |  |  |
| AAAUGACAUGAGGAUCACCCAUGUGGCCCUUAGACUCAUAUCGAGGAUAUCCAGGGCCGGGCCGUGGAGAAGGCGAAUUAAAAU [Edatriusti] (Eterna round: R96, puzzle: Exclusion NG 3) | 32.1 | 26.1 | 40.6 |  |  |  |
| AAUUCUAGGGUCAGACGCACAAGCUUUUUGUUCGUUUUAACAUGAGGAUCACCCAUGUCUAGUGGAUCUGAUCGGGC [JL ViennaUCT Isreen mod 9] (puzzle: Sensor v3, turn-off variant 2) |  |  |  | 71.4 | 28.6 | 31 |
| GGUUGACAUGAGGAUCACCCAUGUGAGGAUAUGCGAGAGAAAAAAGUGAGGAAGAGAUGCAGAAGGCGCUGUCG [salish99-ex1_r3_016] (puzzle: Exclusion 1) |  |  |  | 85.8 | 68.5 | 121 |
| GACAUGAGGAUCACCCAUGUAACCUCAUGUAGGAAGGAGAGUAAGGAUAUACAUGAAGGAAUGAAGUAGAAGGUGCAUAGAGAG [Default title] (Eterna round: R96, puzzle: Exclusion NG 3) | 605 | 377 | 586 |  |  |  |
| CUUAGGGCGGAGGAUAUGCCGUGGGCGAAUACAGUAGAAGGCCGCACUUGAGGAUCACCCAAGUAUGGUCAAAC [Inusisbeor] (Eterna round: R97, puzzle: Exclusion 6) | 15.4 |  | 13.1 |  |  |  |
| UUUAAUUUUUUUUUUUUACAAGCUUUUUGCUCGUCUUAUACAUGAGGAUCACCCAUGUAGGUGAAGGGUAAAUUAUC [JMF 81] (puzzle: Sensor v3, turn-off variant 2) |  |  |  | 77.7 | 17.9 | 15.8 |
| AGUUGGCGAGGAUAUACAUGAGGAUCACCCAUGUGAAAUCCAAGUGAGGAAAUGAAAAGUAGAAGGCGCUGACA [Mod of Mat 23 - Jieux - Exclusion 3] (Eterna round: R97, puzzle: Exclusion 3) | 50 |  | 20.8 |  |  |  |
| AUAAGCUUUUAAAUCCUUAACAUGAGGAUCACCCAUGUUCGUCUUAUGAUGGUCUGAUCCCUGAGGAUCGGACCGUU [JL-sv1-2.03 Brourd Mod] (puzzle: Sensor v3, turn-off variant 1) |  |  |  | 95 | 29.2 | 30.9 |
| UUAAUGUCAGGAUAUGCUUAAUAUAUUAUAUUAUAAUAUAUACAUGAGGAUCACCCAUGUAGAAGGGACAUUAU [LRO-Excl2-03-Fireball XL5] (Eterna round: R97, puzzle: Exclusion 2) | 26.8 |  | 38.2 |  |  |  |
| UGAUCUUGAGUCAGGAUAUGCUGGUAUUUUUACCAGCAGAAGGGACAUGAGGAUCACCCAUGUUCUCACUUUUU [Magic-13] (puzzle: Brourd's mod of Exclusion 4) |  |  |  | 10.5 |  |  |
| GUGUAGAGAGGAUAUACAUGAGGAUCACCCAUGUGAAUAAGAUAGAAUAAGAUAAAGUGUAGAAGGCUUAGUGU [Excluse me!!! 20 - Jieux - Exclusion 3] (puzzle: Exclusion 3) |  |  |  | 31.8 |  |  |
| UUAAAUCAUGUAGGAUAUGCGUGGCGAAGCUAUGCAGAAGGACAUGAGGAUCACCCAUGUUCUAGCGUCUGCGAACAGAUGCAA [Mat - Exclusion NG 1 - Mod of JL - D1] (Eterna round: R96, puzzle: Exclusion NG 1) | 120 | 12.2 | 16.9 |  |  |  |
| CUUAUGUCAGGAUAUGCCUGGCCGUGAGGCCAAAUUGAAUAGCAGAAGGGACAUGAGGAUCACCCAUGUCCGGG [jl-ex4-4.64 ViennaUCT mod] (Eterna round: R97, puzzle: Exclusion 4) | 115 |  | 130 |  |  |  |
| AGGUAACAUGAGGAUCACCCAUGUCAGGAUAUCAGGAAGAUUAGAAUAGAGUAGAGGAUGAGAAGGGACUAUAU [Excluse me! 18- Jieux - Exclusion 1] (puzzle: Exclusion 1) |  |  |  | 31.7 | 31 | 43.1 |
| GUAGAGUAAGGAUAUUGUGAAUAGGAUAGAAUGGUUAGAAGCAAGAAGGUACAUGAGGAUCACCCAUGUAAUGU [Excluse me!!!! 25 - Jieux - Exclusion 4] (puzzle: Exclusion 4) |  |  |  | 23.1 |  |  |

Source: the supplement of paper PMC9170038
